Source: patent publication US9329180B2, “Preparation of anti-PEG antibody expressing cell and application thereof” (KAOHSIUNG MEDICAL UNIVERSITY, priority 2010, dated 2016)

B1: 15-2 antibody: anti-methoxyl-PEG IgG2b antibody; VH SEQ ID NO: 9, VL SEQ ID NO: 10 (antibody, V domains shown)
VH: EVKLEESGGGLVQPGGSMKLSCVASGFTFSNYWMNWVRQSPEKGLEWVTEIRSKSNNYATHYAESVKGRFTISRDDSKGSVYLQMNNLRAEDTGIYYCSNRYYWGQGTLVTVSA
VL: DIVMTQSHKFMSTSVRDRVTITCKASQDVNTSVAWYQQKPGQSPKLVIYWASTRHTGVPDRFTGSGSGTDFTLTISNVQSEDLADYFCLQYINYPYTFGGGTKLEIKR
modifications: VH domain of 15-2 antibody; VL domain of 15-2 antibody
B2: AGP3 antibody: monoclonal IgM antibody specific to the PEG backbone; VH SEQ ID NO: 1, VL SEQ ID NO: 2 (antibody, V domains shown)
VH: EVQLVESGGGLVKPGGSLKLSCAASGFTFSDYYMYWVRQTPEKRLEWVATISDDGTYTYYPHSVKGRFTISRDSAKNNLYLQLSSLKSEDTAMYYCARNDARGDYWGQGTSVTVSS
VL: DIVLTQAAFSNPVTLGTSASISCRSSKSLLHSNGITYLYWYLQKPGQSPQLLIYQMSNLASGVPDRFSSSGSGTDFTLRISRVEAEDVGVYYCAQNLELFTFGSGTKLEIKR
modifications: VH domain of AGP3 antibody; VL domain of AGP3 antibody

Experiments:
[1] = system: Lipo-Dox (liposomal doxorubicin conjugated with CH3O-PEG2K); experiment: 3T3/15-2 cell-based or 15-2 antibody-based sandwich ELISA (AGP4-biotin detection); type: binding; conditions: cell-based versus antibody-based capture
Procedure: (§1) To test whether 3T3/15-2 cell-based or 15-2 antibody-based sandwich ELISA could be used to quantify CH3O-PEG molecules, CH3O-PEG (1K, 2K, 5K, and 20K Da) or Lipo-Dox (liposomal doxorubicin conjugated with CH3O-PEG2K) was added to 3T3/15-2 cell or 15-2 antibody coated 96 well/plates, respectively. Captured mPEG molecules were then quantified by sequential addition of biotinylated AGP4 antibody (AGP4-biotin), streptavidin-conjugated horseradish peroxidase (streptavidin-HRP) and ABTS substrate. […] The sensitivity depended on the length of the PEG chain. CH3O-PEG5K and CH3O-PEG2K could be effectively detected at concentrations as low as 1 nM, respectively.

[2] = as above; type: binding; conditions: cell-based versus antibody-based capture
Procedure: Anti-methoxyl-PEG cells were used as a platform to establish a sandwich ELISA to quantify all kinds of free methoxyl-PEG molecules. 3T3/15-2 cells were seeded into a 96 wells plate. After that, the methoxyl-PEG was added as an analyte, and then a biotinylated anti-PEG antibody (AGP4-Biotin) was used as a detecting antibody. Finally, streptavidin-HRP was added into the 96 wells plate. After adequate washing, the concentration of methoxyl-PEG was known by observing the color intensity of the matrix coated on the 96 wells plate. With existence of serum, this method can quantify all kinds of free methoxyl-PEG molecules (CH3O-PEG2K and CH3O-PEG5K), and the sensitivity was better than using 3T3/AGP3 platform. Therefore, the sandwich ELISA method using 3T3/15-2 platform can sensitively quantify all kinds of methoxyl-PEG molecules.
as §1, with “CH3O-PEG5K and CH3O-PEG2K could be effectively detected at concentrations as low as 1 nM, respectively.” left out

[3] = Direct binding of PEG5K-131I to AGP3 antibody-coated and 3T3/AGP3 cell-coated plates (γ counter)
Procedure: (§2) To further investigate the potential mechanism that dictates the differential ability in detecting PEG by the cell surface-expressed anti-PEG antibody and coated AGP3 antibody, the present invention compared direct binding of PEG5K-biotin (FIG. 8A) or PEG5K-^131I (FIGS. 8B and 8C) to AGP3 antibody and 3T3/AGP3 cells precoated in 96-well plates.
The 3T3/AGP3 and 3T3/DNS cells (2×10^5 cells/well) were seeded overnight in 96-well plates in culture medium. After extensive washing, captures were fixed by 1% paraformaldehy for 3 min. Plates were blocked with 5% skim milk in PBS for 2 hours at 37° C. PEG5K-^131I was serially diluted and added to the cells at room temperature for 1 h. After washing, 1N NaOH was added to elute the bound PEG5K-^131I. The radioactivity of these samples was counted on a γ counter.

[4] = Direct binding of PEG5K-biotin, AGP3 antibody-based and 3T3/AGP3 cell-based ELISA; conditions: streptavidin-HRP and ABTS, 405 nm
Procedure: as §2
The 3T3/AGP3 and 3T3/DNS cells (2×10^5 cells/well) were seeded overnight in 96-well plates in culture medium. After extensive washing, captures were fixed by 1% paraformaldehy for 3 min. Plates were blocked with 5% skim milk in PBS for 2 hours at 37° C. PEG5K-biotin was serially diluted and added to the cells at room temperature for 1 h. After washing, streptavidin-HRP and ABTS were sequentially added to the plates to quantify the captured PEG5K-biotin. Color development was measured at 405 nm on a microplate reader. Using this method, the detection limit of PEG5K-biotin in the 3T3/AGP3 cell-based ELISA was 15.6 ng/mL (FIG. 8A).

Molecule | detection of Lipo-Dox, apparent avidity [1] | detection of CH3O-PEG molecules above molecular weight of 2000 Da [2] | signal intensity per well ([3]; 0.74 μCi/mL PEG5K-131I) | signal intensity per well ([3]; 2.22 μCi/mL PEG5K-131I) | signal intensity per well ([3]; 6.67 μCi/mL PEG5K-131I) | signal intensity per well ([3]; 20 μCi/mL PEG5K-131I) | detection limit of PEG5K-biotin [4]
B1 | similar, apparent avidities | Only 3T3/15-2 cell-based sandwich ELISA could detect | – | – | – | – | –
B2 | – | – | 114 | 210 | 245 | 293 | failed to detect
